# From US20060074018A1, “Methods of diagnosing & treating diabetes and insulin resistance” (Metabolex Inc, priority 2002, published 2006)
# B1: hTIEG: human TIEG (SEQ ID NO:8) over-expressed in 3T3-L1 adipocytes from pcDNA3.1 plasmid (protein, listed as Homo sapiens)
# chain: MEERMEMISERPKESMYSWNKTAEKSDFEAVEALMSMSCSWKSDFKKYVENRPVTPVSDLSEEENLLPGTPDFHTIPAFCLTPPYSPSDFEPSQVSNLMAPAPSTVHFKSLSDTAKPHIAAPFKEEEKSPVSAPKLPKAQATSVIRHTADAQLCNHQTCPMKAASILNYQNNSFRRRTHLNVEAARKNIPCAAVSPNRSKCERNTVADVDEKASAALYDFSVPSSETVICRSQPAPVSPQQKSVLVSPPAVSAGGVPPMPVICQMVPLPANNPVVTTVVPSTPPSQPPAVCPPVVFMGTQVPKGAVMFVVPQPVVQSSKPPVVSPNGTRLSPIAPAPGFSPSAAKVTPQIDSSRIRSHICSHPGCGKTYFKSSHLKAHTRTHTGEKPFSCSWKGCERRFARSDELSRHRRTHTGEKKFACPMCDRRFMRSDHLTKHARRHLSAKKLPNWQMEVSKLNDIALPPTPAPTQ
# modifications: human transforming growth factor-beta (TGFB) inducible early growth response (TIEG)
# B2: hCTGF: human Connective Tissue Growth Factor (SEQ ID NO:2) over-expressed in cells from pcDNA3.1 plasmid or recombinant adenovirus (protein, listed as Homo sapiens)
# chain: MTAASMGPVRVAFVVLLALCSRPAVGQNCSGPCRCPDEPAPRCPAGVSLVLDGCGCCRVCAKQLGELCTERDPCDPHKGLFCDFGSPANRKIGVCTAKDGAPCIFGGTVYRSGESFQSSCKYQCTCLDGAVGCMPLCSMDVRLPSPDCPFPRRVKLPGKCCEEWVCDEPKDQTVVGPALAAYRLEDTFGPDPTMIRANCLVQTTEWSACSKTCGMGISTRVTNDNASCRLEKQSRLCMVRPCEADLEENIKKGKKCIRTPKISKPIKFELSGCTSMKTYRAKFCGVCTDGRCCTPHRTTTLPVEFKCPDGEVMKKNMMFIKTCACHYNCPGDNDIFESLYYRKMYGDMA
# modifications: human connective tissue growth factor (CTGF)
# Experiments:
# [1] = tested on: connective tissue growth factor (CTGF) mRNA; assay: Gene expression profiling of muscle samples on custom Affymetrix chips, probe set mbxhummus 24330; assay type: in vivo, human; conditions: muscle of diabetics, Clamp sample
# Excerpt: (§1) The molecular mechanism by which thiazolidinediones (TZDs) cause an increase in peripheral insulin sensitivity was studied. Genes in muscle or fat whose expression is altered by TZDs may lie on a pathway leading from TZD treatment to increased insulin sensitivity. Modulators of such genes can elicit the same effect as TZD treatment. Moreover, such modulators can lack some of the side effects of TZD. The majority of glucose disposal occurs in muscle. For this reason, gene expression profiling in human muscle from diabetics treated with troglitazone was used to identify genes important for TZD action and therefore treatment of diabetes and insulin resistance. […] The gene expression profile for each individual was determined by hybridization of cRNA to custom synthesized Affymetrix chips. Gene expression profile differences were calculated as follows. […] The raw data was analyzed by a statistical test to remove ‘outliers’. The mean ‘average difference score’ was then calculated from the average difference scores for all individuals in a particular treatment group. Genes were determined to be changed in condition 1 (such as basal diabetics before trogliazone (tro) treatment) versus condition 2 (such as basal diabetics after troglitazone treatment) by calculating the Students t test statistic between the two conditions and selecting those with t less than or equal to 0.05. […]
# TIEG mRNA = assay: Gene expression profiling of muscle samples on custom Affymetrix chips, probe set mbxhummus23808; assay type: in vivo, human; conditions: muscle of diabetics, Basal sample
# Excerpt: as §1
# CTGF expression = assay: Real time PCR analysis of muscle samples, CTGF; assay type: in vivo, human; conditions: mean post-Tro/mean pre-Tro
# Description: (§2) The gene expression changes observed in the human muscle samples derived from lean and diabetic individuals or from diabetic individuals post-Troglitazone treatment, were further confirmed by the use of real-time quantitative PCR. A combination of specific PCR primers and a Taqman probe were designed to detect and quantify expression levels for each gene. Relative gene expression levels were determined in this manner in each patient and the mean expression level in either the lean or diabetic patient population was then calculated.
# TIEG expression = assay: Real time PCR analysis of muscle samples, TIEG; assay type: in vivo, human; conditions: mean post-Tro/mean pre-Tro
# Description: as §2
# 3T3-L1 adipocytes [2] = assay: Glut 4 translocation analysis; assay type: cell-based, murine; conditions: for Fold Change (Mean hTIEG/Mean LacZ), cells positive for cell surface Glut 4 / Fold Change (Mean hCTGF/Mean LacZ), cells positive for cell surface Glut 4: n = 3; for Glut 4 translocation with insulin (in words) / Basal Glut 4 translocation (in words): over-expression in 3T3-L1 adipocytes; for Glut 4 translocation with insulin (in words): all insulin concentrations tested; for Basal Glut 4 translocation (in words): no insulin
# Excerpt: One analysis called “Glut 4 translocation” involves over-expressing the gene in 3T3-L1 adipocytes and then monitoring the ability of insulin to cause the movement (translocation) of the major insulin-regulated glucose transporter, Glut 4, to the cell surface. The cDNA encoding the human gene was sub-cloned into the mammalian expression vector pcDNA3.1 which provides for a V5 epitope tag. This plasmid encoding the human gene was then introduced into differentiated murine 3T3-L1 adipocytes along with a cloned Glut 4 expression construct using an electroporation procedure essentially as described in Kanzaki et al. J. Biol. Chem 275 7167-7175 (2000). A plasmid expressing LacZ was used as a negative control. After stimulation with increasing concentrations of insulin, cells co-expressing both the human gene and cloned Glut 4 were scored for the presence of Glut 4 at the cell surface using fluorescence microscopy.
# 3T3-L1 adipocytes [3] = assay: Glucose transport analysis in 3T3-L1 adipocytes; assay type: cell-based, murine
# Description: (§3) In some instances another analysis called “glucose transport” was used. This involves over-expressing the gene in either differentiated 3T3-L1 adipocytes or differentiated L6 myotubes and then monitoring the ability of insulin to stimulate glucose transport into these two cell types. A recombinant adenovirus encoding the human gene tagged with a FLAG epitope tag was prepared essentially as described in Zhou et al. Proc. Nat. Acad. Sci. USA. 95: 2509-2514. 3T3-L1 adipocytes or L6 myotubes were infected with recombinant adenovims expressing the human gene. A virus expressing an irrelevant protein was used as the control. 24 h post-infection the cells are stimulated with increasing concentrations of insulin and glucose transport into the cells determined by the counting the accumulation of a radiolabelled glucose analog (2-deoxyglucose) essentially as describe in Kotani et al. Mol Cell. Biol. 18 6971-6982 (1998), Fujishiro et al. J. Biol. Chem. 276 19800-19806 (2001), Ross et al. Biochem. Biophys. Res. Commun. 302 354-358 (2003).
# L6 myotubes = assay: Glucose transport analysis in L6 myotubes; assay type: cell-based
# Description: as §3
# [4] = 3 months of Troglitazone treatment
# [5] = after 3 months of Troglitazone treatment, mean average difference score
molecule,measurement,setting,value
"Cc1c(C)c2c(c(C)c1O)CCC(C)(COc1ccc(CC3SC(=O)NC3=O)cc1)O2 (stereo not drawn) [Troglitazone, troglitazone]",Fold Change diabetic post tro/diabetic pre tro (Connective Tissue Growth Factor),[1]; [4],0.07
same,Diabetic Post-Trog Mean Expr (Connective Tissue Growth Factor),[1]; [5],29
same,Fold Change diabetic post-trog/diabetic pre-trog (TIEG),TIEG mRNA; [4],0.65
same,Diabetic Post-Trog Mean Expr (TIEG),TIEG mRNA; [5],2634
same,"Expression Fold change, CTGF, Diabetics + Tro/Diabetics − Tro",CTGF expression,0.35
same,"Expression Fold change, TIEG, Diabetics + Tro/Diabetics − Tro",TIEG expression,0.69
B1,"Fold Change (Mean hTIEG/Mean LacZ), cells positive for cell surface Glut 4",3T3-L1 adipocytes [2]; Insulin 0 nM,1.34
same,"Fold Change (Mean hTIEG/Mean LacZ), cells positive for cell surface Glut 4",3T3-L1 adipocytes [2]; Insulin 1 nM,0.20
same,"Fold Change (Mean hTIEG/Mean LacZ), cells positive for cell surface Glut 4",3T3-L1 adipocytes [2]; Insulin 10 nM,0.11
same,Glut 4 translocation with insulin (in words),3T3-L1 adipocytes [2],significantly inhibited Glut 4 translocation at all insulin concentrations tested
same,Basal Glut 4 translocation (in words),3T3-L1 adipocytes [2],little or no effect on basal Glut 4 translocation
B2,"Fold Change (Mean hCTGF/Mean LacZ), cells positive for cell surface Glut 4",3T3-L1 adipocytes [2]; Insulin 0 nM,0.97
same,"Fold Change (Mean hCTGF/Mean LacZ), cells positive for cell surface Glut 4",3T3-L1 adipocytes [2]; Insulin 1 nM,0.35
same,"Fold Change (Mean hCTGF/Mean LacZ), cells positive for cell surface Glut 4",3T3-L1 adipocytes [2]; Insulin 10 nM,0.45
same,Glut 4 translocation with insulin (in words),3T3-L1 adipocytes [2],significantly inhibited Glut 4 translocation at all insulin concentrations tested
same,Basal Glut 4 translocation (in words),3T3-L1 adipocytes [2],little or no effect on basal Glut 4 translocation
same,FC (hCTGF/Con) glucose transport,"3T3-L1 adipocytes [3]; Expt 1, Insulin 0 nM",0.7
same,FC (hCTGF/Con) glucose transport,"3T3-L1 adipocytes [3]; Expt 1, Insulin 0.05 nM",0.6
same,FC (hCTGF/Con) glucose transport,"3T3-L1 adipocytes [3]; Expt 1, Insulin 0.1 nM",0.6
same,FC (hCTGF/Con) glucose transport,"3T3-L1 adipocytes [3]; Expt 1, Insulin 0.3 nM",0.7
same,FC (hCTGF/Con) glucose transport,"3T3-L1 adipocytes [3]; Expt 1, Insulin 1 nM",0.8
same,FC (hCTGF/Con) glucose transport,"3T3-L1 adipocytes [3]; Expt 1, Insulin 10 nM",0.6
same,FC (hCTGF/Con) glucose transport,"3T3-L1 adipocytes [3]; Expt 2, Insulin 0 nM",0.6
same,FC (hCTGF/Con) glucose transport,"3T3-L1 adipocytes [3]; Expt 2, Insulin 0.05 nM",0.6
same,FC (hCTGF/Con) glucose transport,"3T3-L1 adipocytes [3]; Expt 2, Insulin 0.1 nM",0.7
same,FC (hCTGF/Con) glucose transport,"3T3-L1 adipocytes [3]; Expt 2, Insulin 0.3 nM",0.8
same,FC (hCTGF/Con) glucose transport,"3T3-L1 adipocytes [3]; Expt 2, Insulin 1 nM",0.8
same,FC (hCTGF/Con) glucose transport,"3T3-L1 adipocytes [3]; Expt 2, Insulin 10 nM",0.7
same,FC (hCTGF/Con) glucose transport,"3T3-L1 adipocytes [3]; Expt 3, Insulin 0 nM",0.8
same,FC (hCTGF/Con) glucose transport,"3T3-L1 adipocytes [3]; Expt 3, Insulin 0.05 nM",0.7
same,FC (hCTGF/Con) glucose transport,"3T3-L1 adipocytes [3]; Expt 3, Insulin 0.1 nM",0.7
same,FC (hCTGF/Con) glucose transport,"3T3-L1 adipocytes [3]; Expt 3, Insulin 0.3 nM",0.8
same,FC (hCTGF/Con) glucose transport,"3T3-L1 adipocytes [3]; Expt 3, Insulin 1 nM",0.9
same,FC (hCTGF/Con) glucose transport,"3T3-L1 adipocytes [3]; Expt 3, Insulin 10 nM",0.9
same,Mean FC (hCTGF/Con) +/− SEM (n = 3) glucose transport,3T3-L1 adipocytes [3]; Insulin 0 nM,0.70 +/− 0.03
same,Mean FC (hCTGF/Con) +/− SEM (n = 3) glucose transport,3T3-L1 adipocytes [3]; Insulin 0.05 nM,0.63 +/− 0.06
same,Mean FC (hCTGF/Con) +/− SEM (n = 3) glucose transport,3T3-L1 adipocytes [3]; Insulin 0.1 nM,0.67 +/− 0.02
same,Mean FC (hCTGF/Con) +/− SEM (n = 3) glucose transport,3T3-L1 adipocytes [3]; Insulin 0.3 nM,0.76 +/− 0.05
same,Mean FC (hCTGF/Con) +/− SEM (n = 3) glucose transport,3T3-L1 adipocytes [3]; Insulin 1 nM,0.83 +/− 0.02
same,Mean FC (hCTGF/Con) +/− SEM (n = 3) glucose transport,3T3-L1 adipocytes [3]; Insulin 10 nM,0.75 +/− 0.10
same,Glucose transport (in words),"3T3-L1 adipocytes [3]; over-expression in 3T3-L1 adipocytes, basal and insulin stimulated",inhibited both basal and insulin stimulated glucose transport
same,FC (hCTGF/Con) glucose transport,"L6 myotubes; Expt 1, Insulin 0 nM",0.78
same,FC (hCTGF/Con) glucose transport,"L6 myotubes; Expt 1, Insulin 10 nM",0.67
same,FC (hCTGF/Con) glucose transport,"L6 myotubes; Expt 1, Insulin 100 nM",0.70
same,FC (hCTGF/Con) glucose transport,"L6 myotubes; Expt 2, Insulin 0 nM",0.79
same,FC (hCTGF/Con) glucose transport,"L6 myotubes; Expt 2, Insulin 10 nM",0.92
same,FC (hCTGF/Con) glucose transport,"L6 myotubes; Expt 2, Insulin 100 nM",1.05
same,FC (hCTGF/Con) glucose transport,"L6 myotubes; Expt 3, Insulin 0 nM",0.79
same,FC (hCTGF/Con) glucose transport,"L6 myotubes; Expt 3, Insulin 10 nM",0.77
same,FC (hCTGF/Con) glucose transport,"L6 myotubes; Expt 3, Insulin 100 nM",0.74
same,Mean FC (CTGF/Con) +/− SEM (n = 3) glucose transport,L6 myotubes; Insulin 0 nM,0.79 +/− 0.004
same,Mean FC (CTGF/Con) +/− SEM (n = 3) glucose transport,L6 myotubes; Insulin 10 nM,0.79 +/− 0.07
same,Mean FC (CTGF/Con) +/− SEM (n = 3) glucose transport,L6 myotubes; Insulin 100 nM,0.83 +/− 0.11
same,Glucose transport (in words),"L6 myotubes; over-expression in L6 myotubes, basal and insulin stimulated",inhibited both basal and insulin stimulated glucose transport
